This data set deals with the molecule itself. The data set is described as follows: SEC; last purification step of TraM on Superdex 200 Increase 10/300 in 20 mM Tris-HCl pH 7.5, 100 mM NaCl.

B1: TraM (F plasmid) (natural protein, E. coli F plasmid, UniProt P10026 1-127, looked up)
chain: MAKVNLYISNDAYEKINAIIEKRRQEGAREKDVSFSATASMLLELGLRVHEAQMERKESAFNQTEFNKLLLECVVKTQSSVAKILGIESLSPHVSGNSKFEYANMVEDIREKVSSEMERFFPKNDDE
notes: TraM accessory protein of the F plasmid; synthetic traM gene in the NcoI and HindIII sites of pET28a; In the relaxosome only an AlphaFold model was docked into low-resolution density; also called TraM tetramer; source: E. coli C41 (DE3), purified (ammonium sulphate, HiTrap Heparin, resource Q, HiTrap Blue, Superdex 200 SEC)
B1: the binding result was “binds”.

The values are drawn from paper PMC12117103, “Cryo-EM Structure of the relaxosome, a complex essential for bacterial mating and the spread of antibiotic resistance genes” (Nature Communications, 2024).
